This note sets out measurements from patent US20260258117A1 (ACADEMISCH ZIEKENHUIS LEIDEN H O D N LUMC, published 2026).

For test [1], the target named is T1, Complement Factor H protein (human, UniProt P08603 19-1231).
T1 construct: Plasma protein, bought purified or present in normal human serum; also called FH; CFH
The test is described as follows: plate-bound complement activation assay: BSA-DNP coat, bsAb with normal human serum, FH detected. The procedure: BsAbs were functionally tested in plate-bound complement activation assays. To focus on the classical pathway, MaxiSorp plates were coated with 50 μL/well of a mixture of IgG (10 μg/mL, IVIg, Sanquin) or IgM (1 μg/mL, Merck, 401799) and BSA-DNP (10 μg/mL) or biotinylated BSA-DNP (10 μg/mL, biotinylated in-house) in coating buffer for 1 hour at 37° C. After every incubation, plates were washed three times with PBS/0.05% Tween 20. Plates were blocked with 100 μL/well PBS/1% BSA for 1 hour at 37° C. Samples containing 5 μg/mL (or a titration from 0.1 to 10 μg/mL) bsAbs, 10 μg/mL FH or C4BP, and 1% normal human serum (NHS) in RPMI were preincubated for 30 minutes at 4° C. After washing, plates were incubated with 50 μL/well samples for 1 hour at 37° C. Next, FH and C4BP were detected as described above for the bispecificity ELISA (using goat anti-human FH and HRP-labeled rabbit anti-goat Ig, or using rabbit anti-human C4BP and HRP-labeled goat anti-rabbit Ig), and C5b-9 was detected using mouse anti-human C5b-9 (Dako, M0777) and HRP-labeled goat anti-mouse Ig (Dako, P0447), all diluted in PTB buffer. Plates were developed by incubating with 50 μL/well ABTS containing 1:2000 diluted H₂O₂, and read at 415 nm using a microplate reader. […]

Test [2] deals with T2, C4b-binding protein (human, UniProt P04003 49-597; P20851 18-252).
T2 construct: also called C4BP
T2 sequence (looked up) 1: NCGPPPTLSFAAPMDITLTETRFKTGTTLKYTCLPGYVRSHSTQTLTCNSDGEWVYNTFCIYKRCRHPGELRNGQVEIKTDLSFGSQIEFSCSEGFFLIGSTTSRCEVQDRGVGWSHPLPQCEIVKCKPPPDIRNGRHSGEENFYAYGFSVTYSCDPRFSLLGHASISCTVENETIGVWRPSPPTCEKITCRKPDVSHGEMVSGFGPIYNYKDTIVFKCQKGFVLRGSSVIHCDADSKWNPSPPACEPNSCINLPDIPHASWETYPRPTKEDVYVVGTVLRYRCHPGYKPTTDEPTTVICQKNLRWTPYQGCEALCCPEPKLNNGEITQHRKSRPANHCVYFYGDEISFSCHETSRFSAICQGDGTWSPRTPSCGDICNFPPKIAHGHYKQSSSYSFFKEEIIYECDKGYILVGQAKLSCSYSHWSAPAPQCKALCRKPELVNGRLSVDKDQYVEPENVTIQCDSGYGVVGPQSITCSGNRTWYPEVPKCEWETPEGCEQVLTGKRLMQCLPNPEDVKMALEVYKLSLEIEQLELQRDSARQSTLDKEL
T2 sequence (looked up) 2: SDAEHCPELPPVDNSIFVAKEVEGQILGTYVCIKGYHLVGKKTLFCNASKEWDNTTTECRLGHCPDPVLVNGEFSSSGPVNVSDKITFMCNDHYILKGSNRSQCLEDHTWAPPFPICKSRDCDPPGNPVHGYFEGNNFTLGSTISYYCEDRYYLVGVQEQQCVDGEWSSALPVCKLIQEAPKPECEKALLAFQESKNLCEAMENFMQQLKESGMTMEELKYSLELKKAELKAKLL
The test is described as follows: plate-bound complement activation assay: BSA-DNP coat, bsAb with normal human serum, C4BP detected. As to the method:
BsAbs were functionally tested in plate-bound complement activation assays. To focus on the classical pathway, MaxiSorp plates were coated with 50 μL/well of a mixture of IgG (10 μg/mL, IVIg, Sanquin) or IgM (1 μg/mL, Merck, 401799) and BSA-DNP (10 μg/mL) or biotinylated BSA-DNP (10 μg/mL, biotinylated in-house) in coating buffer for 1 hour at 37° C. After every incubation, plates were washed three times with PBS/0.05% Tween 20. Plates were blocked with 100 μL/well PBS/1% BSA for 1 hour at 37° C. Samples containing 5 μg/mL (or a titration from 0.1 to 10 μg/mL) bsAbs, 10 μg/mL FH or C4BP, and 1% normal human serum (NHS) in RPMI were preincubated for 30 minutes at 4° C. After washing, plates were incubated with 50 μL/well samples for 1 hour at 37° C. Next, FH and C4BP were detected as described above for the bispecificity ELISA (using goat anti-human FH and HRP-labeled rabbit anti-goat Ig, or using rabbit anti-human C4BP and HRP-labeled goat anti-rabbit Ig), and C5b-9 was detected using mouse anti-human C5b-9 (Dako, M0777) and HRP-labeled goat anti-mouse Ig (Dako, P0447), all diluted in PTB buffer. Plates were developed by incubating with 50 μL/well ABTS containing 1:2000 diluted H₂O₂, and read at 415 nm using a microplate reader.

T1 sequence (P08603 19-1231 limits assumed): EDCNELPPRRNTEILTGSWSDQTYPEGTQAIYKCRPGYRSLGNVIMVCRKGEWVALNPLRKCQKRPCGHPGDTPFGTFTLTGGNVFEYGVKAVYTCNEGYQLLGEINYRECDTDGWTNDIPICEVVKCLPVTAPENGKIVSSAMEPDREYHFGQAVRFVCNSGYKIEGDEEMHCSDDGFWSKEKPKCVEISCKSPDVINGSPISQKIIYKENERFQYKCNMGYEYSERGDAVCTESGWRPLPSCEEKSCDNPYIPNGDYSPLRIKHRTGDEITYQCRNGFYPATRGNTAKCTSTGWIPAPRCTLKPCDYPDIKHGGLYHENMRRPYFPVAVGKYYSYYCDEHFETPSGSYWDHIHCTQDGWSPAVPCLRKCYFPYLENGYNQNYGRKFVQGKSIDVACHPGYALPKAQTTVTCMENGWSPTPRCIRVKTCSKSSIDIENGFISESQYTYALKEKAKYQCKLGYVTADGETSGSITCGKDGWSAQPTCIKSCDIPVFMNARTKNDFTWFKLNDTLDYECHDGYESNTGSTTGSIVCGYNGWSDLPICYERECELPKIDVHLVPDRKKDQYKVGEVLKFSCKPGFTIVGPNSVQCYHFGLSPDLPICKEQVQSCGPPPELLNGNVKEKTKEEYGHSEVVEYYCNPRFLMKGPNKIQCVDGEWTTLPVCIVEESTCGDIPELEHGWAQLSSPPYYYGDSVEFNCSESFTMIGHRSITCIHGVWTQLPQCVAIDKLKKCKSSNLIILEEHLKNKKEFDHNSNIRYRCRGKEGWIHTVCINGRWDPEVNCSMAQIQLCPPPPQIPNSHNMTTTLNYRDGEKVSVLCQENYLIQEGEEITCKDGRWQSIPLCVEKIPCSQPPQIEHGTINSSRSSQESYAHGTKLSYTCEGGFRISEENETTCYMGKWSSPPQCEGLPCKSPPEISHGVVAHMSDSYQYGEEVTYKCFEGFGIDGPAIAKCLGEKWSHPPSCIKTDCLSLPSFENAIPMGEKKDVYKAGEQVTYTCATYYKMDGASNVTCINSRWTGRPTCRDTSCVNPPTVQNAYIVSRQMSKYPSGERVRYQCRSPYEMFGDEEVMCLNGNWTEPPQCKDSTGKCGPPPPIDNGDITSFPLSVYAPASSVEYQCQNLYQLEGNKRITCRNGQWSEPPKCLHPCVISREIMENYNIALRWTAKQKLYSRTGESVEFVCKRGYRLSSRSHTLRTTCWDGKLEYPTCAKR

B1: Anti-HIV F405L LALAPG, Anti-DNP K409R LALAPG (bispecific antibody, human IgG1, kappa, L234A L235A)
heavy 1: QVQLVQSGAEVKKPGASVKVSCQASGYRFSNFVIHWVRQAPGQRFEWMGWINPYNGNKEFSAKFQDRVTFTADTSANTAYMELRSLRSADTAVYYCARVGPYSWDDSPQDNYYMDVWGKGTTVIVSSASTKGPSVFPLAPSSKSTSGGTAALGCLVKDYFPEPVTVSWNSGALTSGVHTFPAVLQSSGLYSLSSVVTVPSSSLGTQTYICNVNHKPSNTKVDKRVEPKSCDKTHTCPPCPAPEAAGGPSVFLFPPKPKDTLMISRTPEVTCVVVDVSHEDPEVKFNWYVDGVEVHNAKTKPREEQYNSTYRVVSVLTVLHQDWLNGKEYKCKVSNKALGAPIEKTISKAKGQPREPQVYTLPPSREEMTKNQVSLTCLVKGFYPSDIAVEWESNGQPENNYKTTPPVLDSDGSFLLYSKLTVDKSRWQQGNVFSCSVMHEALHNHYTQKSLSLSPGK
light 1: EIVLTQSPGTLSLSPGERATFSCRSSHSIRSRRVAWYQHKPGQAPRLVIHGVSNRASGISDRFSGSGSGTDFTLTITRVEPEDFALYYCQVYGASSYTFGQGTKLERKRTVAAPSVFIFPPSDEQLKSGTASVVCLLNNFYPREAKVQWKVDNALQSGNSQESVTEQDSKDSTYSLSSTLTLSKADYEKHKVYACEVTHQGLSSPVTKSFNRGEC
heavy 2: DVRLQESGPGLVKPSQSLSLTCSVTGYSITNSYYWNWIRQFPGNKLEWMVYIGYDGSNNYNPSLKNRISITRDTSKNQFFLKLNSVTTEDTATYYCARATYYGNYRGFAYWGQGTLVTVSAASTKGPSVFPLAPSSKSTSGGTAALGCLVKDYFPEPVTVSWNSGALTSGVHTFPAVLQSSGLYSLSSVVTVPSSSLGTQTYICNVNHKPSNTKVDKRVEPKSCDKTHTCPPCPAPEAAGGPSVFLFPPKPKDTLMISRTPEVTCVVVDVSHEDPEVKFNWYVDGVEVHNAKTKPREEQYNSTYRVVSVLTVLHQDWLNGKEYKCKVSNKALGAPIEKTISKAKGQPREPQVYTLPPSREEMTKNQVSLTCLVKGFYPSDIAVEWESNGQPENNYKTTPPVLDSDGSFFLYSRLTVDKSRWQQGNVFSCSVMHEALHNHYTQKSLSLSPGK
light 2: DIRMTQTTSSLSASLGDRVTISCRASQDISNYLNWYQQKPDGTVKLLIYYTSRLHSGVPSRFSGSGSGTDYSLTISNLEQEDIATYFCQQGNTLPWTFGGGTKLEIKRTVAAPSVFIFPPSDEQLKSGTASVVCLLNNFYPREAKVQWKVDNALQSGNSQESVTEQDSKDSTYSLSSTLTLSKADYEKHKVYACEVTHQGLSSPVTKSFNRGEC
notes: also called anti-HIV x anti-DNP
As for B1, the binding result in test [1] and in test [2] was “no binding” in each case.
